Measurements as given in the RNAGym collection of RNA variant scans (doi:10.1093/nar/gkz1192).

B1: CPEB3 Ribozyme (parent)
chain: UAACAGGGGGCCACAGCAGAAGCGUUCACGUCGCAGCCCCUGUCAGAUUCUGGUGAAUCUGCGAAUUCUGCUGUAUAUCUC

Variants of: B1
Assay: self-cleavage, relative activity (ratio to wild type); higher = more cleavage; in vitro, sequencing
In short: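 Relative activity compares each variant's cleaved/total read fraction with that of the unmutated ribozyme. To get these fractions, barcoded CPEB3 ribozyme libraries from rounds of error-prone PCR were transcribed with T7 RNA polymerase for 5 hours at 37°C and then given 15 min of DNase I treatment before EDTA was added. The RNAs were reverse transcribed with template switching and sequenced on Illumina, and DNA sequencing linked barcodes to variants. A minimum of 5 reads applied, and three batches were averaged.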

| Variant | self-cleavage |
| --- | --- |
| UAACAGGGGGCCACAGCAGAAGCGUCCACGUCGCAGCCCCUGUCAGAUUCUGGUGAAUCUGCGAAUUCUGCUGUAUAUUUC [U26C C79U] | 0.55 |
| UAACAGGGGGCCACAGCAGAAGCGUCCACGUCGCAGCCCCUGUCAGAUUCUGGUGAAUCUGCGAAUUUUGCUGUAUAUCUC [U26C C68U] | 0.5 |
| UAACAGGGGGCCACAGCAGAAGCGUCCACGUCGCAGCCCCUGUCAGAUUCUGGUGAAUCUGCGAAUUAUGCUGUAUAUCUC [U26C C68A] | 0.28 |
| UAACAGGGGGCCACAGCAGAAGCGUCCACGUCGCAGCCCCUGUCAGAUUGUGGUGAAUCUGCGAAUUCUGCUGUAUAUCUC [U26C C50G] | 0.22 |
| UAACAGGGGGCCACAGCAGAAGCGUCCACGUCGCAGCCCCUGUCAGAUUUUGGUGAAUCUGCGAAUUCUGCUGUAUAUCUC [U26C C50U] | 0.27 |
| UAACAGGGGGCCACAGCAGAAGCGUCCACGUCGCAGCCCCUGUCAGAUUAUGGUGAAUCUGCGAAUUCUGCUGUAUAUCUC [U26C C50A] | 0.44 |
| UAACAGGGGGCCACAGCAGAAGCGUCCACGUCGCAGCCCCUGUCAGAUUCUGGUGACUCUGCGAAUUCUGCUGUAUAUCUC [U26C A57C] | 0.28 |
| UAACAGGGGGCCACAGCAGAAGCGUCCACGUCGCAGCCCCUGUCAGAUUCUGGUGAUUCUGCGAAUUCUGCUGUAUAUCUC [U26C A57U] | 0.31 |
| UAACAGGGGGCCACAGCAGAAGCGUCCACGUCGCAGCCCCUGUCAGAUUCUGGUGAGUCUGCGAAUUCUGCUGUAUAUCUC [U26C A57G] | 0.36 |
| UAACAGGGGGCCACAGCAGAAGCGUCCACGUCGCAGCCCCUGUCAGAUUCUGGUGAAUCUGCGAAUUCUGCUGUAUAUCUA [U26C C81A] | 0.63 |
| UAACAGGGGGCCACAGCAGAAGCGUCCACGUCGCAGCCCCUGUCAGAUUCUGGUGAAUCUGCGAAUUCUGCUGUAUAUCUU [U26C C81U] | 0.5 |
| UAACAGGGGGCCACAGCAGAAGCGUCCACGUCGCAGCCCCUGUCAGAUUCUGGUGAAUCUGCGAAUUCUGCUGUAUCUCUC [U26C A77C] | 0.45 |
| UAACAGGGGGCCACAGCAGAAGCGUCCACGUCGCAGCCCCUGUCAGAUUCUGGUGAAUCUGCGAAUUCUGCUGUAUUUCUC [U26C A77U] | 0.53 |
| UAACAGGGGGCCACAGCAGAAGCGUCCACGUCGCAGCCCCUGUCAGAUUCUGGUGAAUCUGCGAAUUCUGCUGUAUGUCUC [U26C A77G] | 0.46 |
| UAACAGGGGGCCACAGCAGAAGCGUCCACGUCGCAGCCCCUGUCAGAUUCUGGUGAAUCUGCGAAUUCUGCUGUGUAUCUC [U26C A75G] | 0.38 |
| UAACAGGGGGCCACAGCAGAAGCGUCCACGUCGCAGCCCCUGUCAGAUUCUGGUGAAUCUGCGAAUUCUGCUGUCUAUCUC [U26C A75C] | 0.38 |
| UAACAGGGGGCCACAGCAGAAGCGUCCACGUCGCAGCCCCUGUCAGAUUCUGGUGAAUCUGCGAAUUCUGCUGUUUAUCUC [U26C A75U] | 0.56 |

| Variant | self-cleavage |
| --- | --- |
| UAACAGGGGGCCACAGCAGAAGCGUCCACGUCGCUGCCCCUGUCAGAUUCUGGUGAAUCUGCGAAUUCUGCUGUAUAUCUC [U26C A35U] | 0.24 |
| UAACAGGGGGCCACAGCAGAAGCGUCCACGUCGCCGCCCCUGUCAGAUUCUGGUGAAUCUGCGAAUUCUGCUGUAUAUCUC [U26C A35C] | 0.32 |
| UAACAGGGGGCCACAGCAGAAGCGUCCACGUCGCGGCCCCUGUCAGAUUCUGGUGAAUCUGCGAAUUCUGCUGUAUAUCUC [U26C A35G] | 1.07 |
| UAACAGGGGGCCACAGCAGAAGCGUCCACGUUGCAGCCCCUGUCAGAUUCUGGUGAAUCUGCGAAUUCUGCUGUAUAUCUC [U26C C32U] | 0.16 |
| UAACAGGGGGCCACAGCAGAAGCGUCCACGUGGCAGCCCCUGUCAGAUUCUGGUGAAUCUGCGAAUUCUGCUGUAUAUCUC [U26C C32G] | 0.11 |
| UAACAGGGGGCCACAGCAGAAGCGUCCACGUAGCAGCCCCUGUCAGAUUCUGGUGAAUCUGCGAAUUCUGCUGUAUAUCUC [U26C C32A] | 0.22 |
| UAACAGGGGGCCACAGCAGAAGCGUCCACGUCGCAGCCCCUGUCAGAUUCUGGUGAAUCUGCGAGUUCUGCUGUAUAUCUC [U26C A65G] | 0.3 |
| UAACAGGGGGCCACAGCAGAAGCGUCCACGUCGCAGCCCCUGUCAGAUUCUGGUGAAUCUGCGAUUUCUGCUGUAUAUCUC [U26C A65U] | 0.3 |
| UAACAGGGGGCCACAGCAGAAGCGUCCACGUCGCAGCCCCUGUCAGAUUCUGGUGAAUCUGCGACUUCUGCUGUAUAUCUC [U26C A65C] | 0.28 |
| UAACAGGGGGCCACAGCAGAAGCGUCCAAGUCGCAGCCCCUGUCAGAUUCUGGUGAAUCUGCGAAUUCUGCUGUAUAUCUC [U26C C29A] | 0.18 |
| UAACAGGGGGCCACAGCAGAAGCGUCCAGGUCGCAGCCCCUGUCAGAUUCUGGUGAAUCUGCGAAUUCUGCUGUAUAUCUC [U26C C29G] | 0.35 |
| UAACAGGGGGCCACAGCAGAAGCGUCCAUGUCGCAGCCCCUGUCAGAUUCUGGUGAAUCUGCGAAUUCUGCUGUAUAUCUC [U26C C29U] | 0.29 |
| UAACAGGGGGCCACAGCAGAAGCGUCCACGUCGCAGCCCCUGUCAGAUUCUGGUGAAUAUGCGAAUUCUGCUGUAUAUCUC [U26C C59A] | 0.17 |
| UAACAGGGGGCCACAGCAGAAGCGUCCACGUCGCAGUCCCUGUCAGAUUCUGGUGAAUCUGCGAAUUCUGCUGUAUAUCUC [U26C C37U] | 0.32 |
| UAACAGGGGGCCACAGCAGAAGCGUCCACGUCGCAGACCCUGUCAGAUUCUGGUGAAUCUGCGAAUUCUGCUGUAUAUCUC [U26C C37A] | 0.13 |
| UAACAGGGGGCCACAGCAGAAGCGUCCACGUCGCAGGCCCUGUCAGAUUCUGGUGAAUCUGCGAAUUCUGCUGUAUAUCUC [U26C C37G] | 0.71 |
| UAACAGGGGGCCACAGCAGAAGCGUCCACGUCGCAGCCCCUGUCAGAUUCUGGUGAAUCUGCGAAUUCUGCUGUAUAUCUC [U26C] | 0.5 |
